Test results taken from the supplement of paper PMC9876800.

Tested on: peptide library, one residue held at a place counted from the S/T acceptor
Test: relative phosphorylation of the sub-library (ratio to the mean residue at this position); human; higher = residue favoured
Summary of the method: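 Each biotinylated degenerate peptide sub-library fixed one residue at one position around a central Ser/Thr and was incubated with a purified recombinant kinase, a human or orthologue construct, in 384-well plates. The 90 min reactions, under kinase-specific conditions, contained 50 μM peptide and 50 μM ATP spiked with γ-32P-ATP. Phosphorylation was read by phosphorimaging spots on streptavidin membranes and quantifying them by densitometry. Relative sub-library phosphorylation expresses each value as a ratio to the mean residue at that position.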

Chain of PAK1, construct: aa150-end (Q13153 150-545, looked up): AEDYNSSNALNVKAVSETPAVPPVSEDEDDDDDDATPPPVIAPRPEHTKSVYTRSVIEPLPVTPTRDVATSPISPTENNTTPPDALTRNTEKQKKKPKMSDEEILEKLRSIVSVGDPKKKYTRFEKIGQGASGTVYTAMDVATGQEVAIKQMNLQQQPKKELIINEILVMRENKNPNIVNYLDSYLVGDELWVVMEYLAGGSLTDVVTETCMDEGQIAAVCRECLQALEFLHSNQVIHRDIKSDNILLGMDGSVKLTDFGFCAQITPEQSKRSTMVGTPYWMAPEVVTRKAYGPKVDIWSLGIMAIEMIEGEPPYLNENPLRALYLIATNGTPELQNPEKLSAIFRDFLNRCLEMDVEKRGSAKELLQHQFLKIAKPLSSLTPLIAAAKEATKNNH

PAK1, construct: aa150-end (from UniProt Q13153)
relative phosphorylation (A fixed, at +1): 0.877 | relative phosphorylation (A fixed, at +2): 1.16 | relative phosphorylation (A fixed, at +3): 0.875 | relative phosphorylation (A fixed, at +4): 1.05 | relative phosphorylation (A fixed, at -1): 0.946 | relative phosphorylation (A fixed, at -2): 0.789 | relative phosphorylation (A fixed, at -3): 0.87 | relative phosphorylation (A fixed, at -4): 1.27 | relative phosphorylation (A fixed, at -5): 1.39 | relative phosphorylation (D fixed, at +1): 0.338 | relative phosphorylation (D fixed, at +2): 0.472 | relative phosphorylation (D fixed, at +3): 0.959 | relative phosphorylation (D fixed, at +4): 1.32 | relative phosphorylation (D fixed, at -1): 0.592 | relative phosphorylation (D fixed, at -2): 0.203 | relative phosphorylation (D fixed, at -3): 0.558 | relative phosphorylation (D fixed, at -4): 0.825 | relative phosphorylation (D fixed, at -5): 0.785 | relative phosphorylation (E fixed, at +1): 0.428 | relative phosphorylation (E fixed, at +2): 0.398 | relative phosphorylation (E fixed, at +3): 1.09 | relative phosphorylation (E fixed, at +4): 1.29 | relative phosphorylation (E fixed, at -1): 0.559 | relative phosphorylation (E fixed, at -2): 0.206 | relative phosphorylation (E fixed, at -3): 0.495 | relative phosphorylation (E fixed, at -4): 0.85 | relative phosphorylation (E fixed, at -5): 0.676 | relative phosphorylation (F fixed, at +1): 0.993 | relative phosphorylation (F fixed, at +2): 1.14 | relative phosphorylation (F fixed, at +3): 1.33 | relative phosphorylation (F fixed, at +4): 0.741 | relative phosphorylation (F fixed, at -1): 0.696 | relative phosphorylation (F fixed, at -2): 0.346 | relative phosphorylation (F fixed, at -3): 0.464 | relative phosphorylation (F fixed, at -4): 0.633 | relative phosphorylation (F fixed, at -5): 0.68 | relative phosphorylation (G fixed, at +1): 0.895 | relative phosphorylation (G fixed, at +2): 0.726 | relative phosphorylation (G fixed, at +3): 1.22 | relative phosphorylation (G fixed, at +4): 1.24 | relative phosphorylation (G fixed, at -1): 0.782 | relative phosphorylation (G fixed, at -2): 0.526 | relative phosphorylation (G fixed, at -3): 0.869 | relative phosphorylation (G fixed, at -4): 1.4 | relative phosphorylation (G fixed, at -5): 1.44 | relative phosphorylation (H fixed, at +1): 1.09 | relative phosphorylation (H fixed, at +2): 1.6 | relative phosphorylation (H fixed, at +3): 1.17 | relative phosphorylation (H fixed, at +4): 0.97 | relative phosphorylation (H fixed, at -1): 1.35 | relative phosphorylation (H fixed, at -2): 1.37 | relative phosphorylation (H fixed, at -3): 1.4 | relative phosphorylation (H fixed, at -4): 1.14 | relative phosphorylation (H fixed, at -5): 1.16 | relative phosphorylation (I fixed, at +1): 1.03 | relative phosphorylation (I fixed, at +2): 1.1 | relative phosphorylation (I fixed, at +3): 0.826 | relative phosphorylation (I fixed, at +4): 0.773 | relative phosphorylation (I fixed, at -1): 0.564 | relative phosphorylation (I fixed, at -2): 0.551 | relative phosphorylation (I fixed, at -3): 0.41 | relative phosphorylation (I fixed, at -4): 0.529 | relative phosphorylation (I fixed, at -5): 0.55 | relative phosphorylation (K fixed, at +1): 1.18 | relative phosphorylation (K fixed, at +2): 0.604 | relative phosphorylation (K fixed, at +3): 0.775 | relative phosphorylation (K fixed, at +4): 1.08 | relative phosphorylation (K fixed, at -1): 1.72 | relative phosphorylation (K fixed, at -2): 1.32 | relative phosphorylation (K fixed, at -3): 2.34 | relative phosphorylation (K fixed, at -4): 1.71 | relative phosphorylation (K fixed, at -5): 1.88 | relative phosphorylation (L fixed, at +1): 0.969 | relative phosphorylation (L fixed, at +2): 1.09 | relative phosphorylation (L fixed, at +3): 1.04 | relative phosphorylation (L fixed, at +4): 0.77 | relative phosphorylation (L fixed, at -1): 0.821 | relative phosphorylation (L fixed, at -2): 0.374 | relative phosphorylation (L fixed, at -3): 0.415 | relative phosphorylation (L fixed, at -4): 0.547 | relative phosphorylation (L fixed, at -5): 0.53 | relative phosphorylation (M fixed, at +1): 1.58 | relative phosphorylation (M fixed, at +2): 1.02 | relative phosphorylation (M fixed, at +3): 0.913 | relative phosphorylation (M fixed, at +4): 0.783 | relative phosphorylation (M fixed, at -1): 0.927 | relative phosphorylation (M fixed, at -2): 0.36 | relative phosphorylation (M fixed, at -3): 0.485 | relative phosphorylation (M fixed, at -4): 0.744 | relative phosphorylation (M fixed, at -5): 0.587 | relative phosphorylation (N fixed, at +1): 0.895 | relative phosphorylation (N fixed, at +2): 0.885 | relative phosphorylation (N fixed, at +3): 0.971 | relative phosphorylation (N fixed, at +4): 1.11 | relative phosphorylation (N fixed, at -1): 1.19 | relative phosphorylation (N fixed, at -2): 0.518 | relative phosphorylation (N fixed, at -3): 0.965 | relative phosphorylation (N fixed, at -4): 1.01 | relative phosphorylation (N fixed, at -5): 1.03 | relative phosphorylation (P fixed, at +1): 0.228 | relative phosphorylation (P fixed, at +2): 0.716 | relative phosphorylation (P fixed, at +3): 1.03 | relative phosphorylation (P fixed, at +4): 1.4 | relative phosphorylation (P fixed, at -1): 0.646 | relative phosphorylation (P fixed, at -2): 1.08 | relative phosphorylation (P fixed, at -3): 0.823 | relative phosphorylation (P fixed, at -4): 1.24 | relative phosphorylation (P fixed, at -5): 1.16 | relative phosphorylation (Q fixed, at +1): 1.3 | relative phosphorylation (Q fixed, at +2): 0.766 | relative phosphorylation (Q fixed, at +3): 0.897 | relative phosphorylation (Q fixed, at +4): 1.2 | relative phosphorylation (Q fixed, at -1): 1.11 | relative phosphorylation (Q fixed, at -2): 0.673 | relative phosphorylation (Q fixed, at -3): 0.952 | relative phosphorylation (Q fixed, at -4): 1.08 | relative phosphorylation (Q fixed, at -5): 0.964 | relative phosphorylation (R fixed, at +1): 1.46 | relative phosphorylation (R fixed, at +2): 0.793 | relative phosphorylation (R fixed, at +3): 0.841 | relative phosphorylation (R fixed, at +4): 0.95 | relative phosphorylation (R fixed, at -1): 2.22 | relative phosphorylation (R fixed, at -2): 6.99 | relative phosphorylation (R fixed, at -3): 4.23 | relative phosphorylation (R fixed, at -4): 1.99 | relative phosphorylation (R fixed, at -5): 2.04 | relative phosphorylation (V fixed, at +1): 0.971 | relative phosphorylation (V fixed, at +2): 0.925 | relative phosphorylation (V fixed, at +3): 0.797 | relative phosphorylation (V fixed, at +4): 0.851 | relative phosphorylation (V fixed, at -1): 0.766 | relative phosphorylation (V fixed, at -2): 0.724 | relative phosphorylation (V fixed, at -3): 0.431 | relative phosphorylation (V fixed, at -4): 0.624 | relative phosphorylation (V fixed, at -5): 0.707 | relative phosphorylation (W fixed, at +1): 1.57 | relative phosphorylation (W fixed, at +2): 0.978 | relative phosphorylation (W fixed, at +3): 1.03 | relative phosphorylation (W fixed, at +4): 0.806 | relative phosphorylation (W fixed, at -1): 0.886 | relative phosphorylation (W fixed, at -2): 0.369 | relative phosphorylation (W fixed, at -3): 0.703 | relative phosphorylation (W fixed, at -4): 0.756 | relative phosphorylation (W fixed, at -5): 0.668 | relative phosphorylation (Y fixed, at +1): 1.19 | relative phosphorylation (Y fixed, at +2): 2.62 | relative phosphorylation (Y fixed, at +3): 1.22 | relative phosphorylation (Y fixed, at +4): 0.652 | relative phosphorylation (Y fixed, at -1): 1.22 | relative phosphorylation (Y fixed, at -2): 0.6 | relative phosphorylation (Y fixed, at -3): 0.594 | relative phosphorylation (Y fixed, at -4): 0.672 | relative phosphorylation (Y fixed, at -5): 0.762 | relative phosphorylation (pThr fixed, at +1): 0.668 | relative phosphorylation (pThr fixed, at +2): 0.676 | relative phosphorylation (pThr fixed, at +3): 0.877 | relative phosphorylation (pThr fixed, at +4): 1.4 | relative phosphorylation (pThr fixed, at -1): 0.439 | relative phosphorylation (pThr fixed, at -2): 0.503 | relative phosphorylation (pThr fixed, at -3): 0.568 | relative phosphorylation (pThr fixed, at -4): 0.857 | relative phosphorylation (pThr fixed, at -5): 0.666 | relative phosphorylation (pTyr fixed, at +1): 0.886 | relative phosphorylation (pTyr fixed, at +2): 4.31 | relative phosphorylation (pTyr fixed, at +3): 1.28 | relative phosphorylation (pTyr fixed, at +4): 1.09 | relative phosphorylation (pTyr fixed, at -1): 0.672 | relative phosphorylation (pTyr fixed, at -2): 0.392 | relative phosphorylation (pTyr fixed, at -3): 0.853 | relative phosphorylation (pTyr fixed, at -4): 0.808 | relative phosphorylation (pTyr fixed, at -5): 0.675
